Experimental data: the supplement of paper PMC11246515
± gives the standard deviation of the averaged measurements.

Experiment: total protein half-life in vivo (active degradation + dilution); higher = more stable protein
[1] = E. coli NCM3722 delta-clpP delta-lon delta-hslV, growth: N-lim chemostat, doubling time 6 h
[2] = E. coli NCM3722 delta-clpP, growth: N-lim chemostat, doubling time 6 h
[3] = E. coli NCM3722 delta-hslV, growth: N-lim chemostat, doubling time 6 h
[4] = E. coli NCM3722 delta-lon, growth: N-lim chemostat, doubling time 6 h
[5] = E. coli NCM3722 delta-smpB, growth: N-lim chemostat, doubling time 6 h
[6] = wild type E. coli NCM3722, growth: C-lim chemostat, doubling time 3 h
[7] = wild type E. coli NCM3722, growth: C-lim chemostat, doubling time 6 h
[8] = wild type E. coli NCM3722, growth: C-lim chemostat, doubling time 12 h
[9] = wild type E. coli NCM3722, growth: N-lim chemostat, doubling time 6 h
[10] = wild type E. coli NCM3722, growth: N-lim chemostat, doubling time 12 h
[11] = wild type E. coli NCM3722, growth: P-lim chemostat, doubling time 6 h
[12] = wild type E. coli NCM3722, growth: P-lim chemostat, doubling time 12 h

Row | Sequence | total protein half-life in vivo [1] [h] | total protein half-life in vivo [2] [h] | total protein half-life in vivo [3] [h] | total protein half-life in vivo [4] [h] | total protein half-life in vivo [5] [h] | total protein half-life in vivo [6] [h] | total protein half-life in vivo [7] [h] | total protein half-life in vivo [8] [h] | total protein half-life in vivo [9] [h] | total protein half-life in vivo [10] [h] | total protein half-life in vivo [11] [h] | total protein half-life in vivo [12] [h]
1 | MPIRVPDELPAVNFLREENVFVMTTSRASGQEIRPLKVLILNLMPKKIETENQFLRLLSNSPLQVDIQLLRIDSRESRNTPAEHLNNFYCNFEDIQDQNFDGLIVTGAPLGLVEFNDVAYWPQIKQVLEWSKDHVTSTLFVCWAVQAALNILYGIPKQTRTEKLSGVYEHHILHPHALLTRGFDDSFLAPHSRYADFPAALIRDYTDLEILAETEEGDAYLFASKDKRIAFVTGHPEYDAQTLAQEFFRDVEAGLDPDVPYNYFPHNDPQNTPRASWRSHGNLLFTNWLNYYVYQITPYDLRHMNPTLD | 3.26 ± 0.67 | 1.85 ± 0.45 | 1.61 ± 0.2 | 1.87 ± 0.033 | 1.52 ± 0.29 | 2.61 ± 0.097 | 3.27 ± 0.32 | 4.92 ± 0.52 | 1.58 ± 0.093 | 2.14 ± 0.23 | 3.94 ± 0.39 | 6.4 ± 0.19
2 | MPKFRVSLFSLALMLAVPFAPQAVAKTAAATTASQPEIASGSAMIVDLNTNKVIYSNHPDLVRPIASISKLMTAMVVLDARLPLDEKLKVDISQTPEMKGVYSRVRLNSEISRKDMLLLALMSSENRAAASLAHHYPGGYKAFIKAMNAKAKSLGMNNTRFVEPTGLSVHNVSTARDLTKLLIASKQYPLIGQLSTTREDMATFSNPTYTLPFRNTNHLVYRDNWNIQLTKTGFTNAAGHCLVMRTVINNKPVALVVMDAFGKYTHFADASRLRTWIETGKVMPVPAAALSYKKQKAAQMAAAGQTAQND [P0AFI5] | 3.37 ± 0.94 | 4.68 ± 1.7 | 2.57 ± 0.64 | 2.78 ± 0.39 | 1.81 ± 0.06 | 1.2 ± 0.078 | 1.65 ± 0.34 | 5.03 ± 1.2 | 2.93 ± 0.48 | 3.05 ± 0.18 | 3.78 ± 3.8 | 5.78 ± 1.1
3 | MPKIVILPHQDLCPDGAVLEANSGETILDAALRNGIEIEHACEKSCACTTCHCIVREGFDSLPESSEQEDDMLDKAWGLEPESRLSCQARVTDEDLVVEIPRYTINHAREH [P0A9R4] | 4.926 ± 0.026 | 5.96 ± 1.3 | 4.83 ± 0.91 | 6.22 ± 1.6 | 3.67 ± 0.56 | 3.16 ± 0.84 |  | 6.59 ± 0.084 | 4.05 ± 0.7 | 8.81 ± 2.2 | 5.22 ± 0.39 | 10.8 ± 0.6
4 | MPLHNLTRFPRLEFIGAPTPLEYLPRFSDYLGREIFIKRDDVTPMAMGGNKLRKLEFLAADALREGADTLITAGAIQSNHVRQTAAVAAKLGLHCVALLENPIGTTAENYLTNGNRLLLDLFNTQIEMCDALTDPNAQLEELATRVEAQGFRPYVIPVGGSNALGALGYVESALEIAQQCEGAVNISSVVVASGSAGTHAGLAVGLEHLMPESELIGVTVSRSVADQLPKVVNLQQAIAKELELTASAEILLWDDYFAPGYGVPNDEGMEAVKLLARLEGILLDPVYTGKAMAGLIDGISQKRFKDEGPILFIHTGGAPALFAYHPHV |  | 5.78 ± 0.85 | 5.5 ± 0.72 | 6.76 ± 0.46 | 5.72 ± 0.2 | 3.17 ± 0.16 | 5.52 ± 0.73 |  | 5.78 ± 0.087 | 11.6 ± 0.43 | 5.91 ± 0.16 | 12.259 ± 0.0094
5 | MPLLDSFTVDHTRMEAPAVRVAKTMNTPHGDAITVFDLRFCVPNKEVMPERGIHTLEHLFAGFMRNHLNGNGVEIIDISPMGCRTGFYMSLIGTPDEQRVADAWKAAMEDVLKVQDQNQIPELNVYQCGTYQMHSLQEAQDIARSILERDVRINSNEELALPKEKLQELHI | 5.42 ± 0.74 | 4.79 ± 0.64 | 4.37 ± 0.6 | 4.38 ± 0.28 | 3.97 ± 0.12 | 2.71 ± 0.32 | 4.05 ± 0.31 | 7.07 ± 0.68 | 3.61 ± 0.1 | 5.61 ± 0.47 | 4.72 ± 0.19 | 9.47 ± 0.63
6 | MPLSAQQLAAQKNLSYVLAEKLAQRILKGEYEPGTILPGEIELGEQFGVSRTAVREAVKTLTAKGMVLPRPRIGTRVMPQSNWNFLDQELLTWWMTEENFHQVIDHFLVMRICLEPQACLLAATVGTAEQKAHLNTLMAEMAALKENFRRERWIEVDMAWHEHIYEMSANPFLTSFASLFHSVYHTYFTSITSDTVIKLDLHQAIVDAIIQSDGDAAFKACQALLRSPDK | 4.46 ± 0.8 | 6.01 | 5.31 | 6.07 ± 0.2 | 5.77 ± 0.38 | 2.88 | 6.4 ± 1.1 | 12.2 | 3 | 10.5 | 4.72 ± 1.2 | 11.4 ± 0.35
7 | MPLSPYLSFAGNCSDAIAYYQRTLGAELLYKISFGEMPKSAQDSAENCPSGMQFPDTAIAHANVRIAGSDIMMSDAMPSGKASYSGFTLVLDSQQVEEGKRWFDNLAANGKIEMAWQETFWAHGFGKVTDKFGVPWMINVVKQQPTQ | 4.69 ± 0.16 | 4.35 ± 0.15 | 5.15 ± 1.1 | 6.806 ± 0.035 | 4.57 ± 0.27 | 3.13 ± 0.35 | 5.29 ± 0.48 | 10.04 ± 0.096 | 4.31 ± 0.37 | 8.56 ± 1.2 | 5.88 ± 0.59 | 12.4 ± 0.98
